Measured values published in article PMC7804408.
pKd: −log10 of the molar value.

Target: trigger factor (TF) (E. coli) (UniProt P0A850)
Assay: SPR; TF immobilised on a CM5 chip by amine coupling, analytes injected at 20 μL/min for 90 s; Biacore X, 22 °C; 10 mM HEPES pH 7.5, 150 mM NaCl, 3 mM EDTA, 0.005% P20; steady-state response against concentration, one-site Langmuir model; apparent Kd for ClpX

Chain of trigger factor (TF) (E. coli) (P0A850 whole entry): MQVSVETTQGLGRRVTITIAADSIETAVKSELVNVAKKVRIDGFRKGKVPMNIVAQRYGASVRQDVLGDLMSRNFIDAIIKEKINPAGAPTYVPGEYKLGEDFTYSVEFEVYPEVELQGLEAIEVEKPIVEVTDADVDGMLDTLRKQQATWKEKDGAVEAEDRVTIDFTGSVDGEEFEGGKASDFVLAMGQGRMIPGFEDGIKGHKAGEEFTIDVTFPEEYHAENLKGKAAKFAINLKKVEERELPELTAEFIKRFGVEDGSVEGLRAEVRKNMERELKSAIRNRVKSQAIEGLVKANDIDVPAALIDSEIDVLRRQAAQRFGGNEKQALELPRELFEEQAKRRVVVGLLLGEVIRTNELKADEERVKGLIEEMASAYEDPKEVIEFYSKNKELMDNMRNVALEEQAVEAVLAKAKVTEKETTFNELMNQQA

Substance: ClpX∆ZBD (AAA+ domain of ClpX) (domain or fragment)
- pKd: 5.70
